From patent US20240294593A1 (Genentech, published 2024)
Substitutions are numbered along the chain they refer to. Numbers in names are those of the source.

B1: H1.57_L1 (antibody, human IgG1, kappa, V domains shown)
VH: EVQLVESGGGLVQPGGSLRLSCAASGFTFSSFGMHWVRQAPGKGLEWVSYISSQSSIIYYADSVKGRFTISRDNAKNSLYLQMNSLRAEDTAVYYCARGGRLVWSPDYWGQGTLVTVSS
VL: DIVMTQSPDSLAVSLGERATINCKSSQSLLNSGNQKNYLTWYQQKPGQPPKLLIYWASTRESGVPDRFTGSGSGTDFTLTISSLQAEDVAVYYCQNDYSYPFTFGSGTKLEIKR
notes: also called VH-G56Q; Kabat 53Q; copies: 2 + 2
B2: H1.69_L1 (antibody, human IgG1, kappa, V domains shown)
VH: B1 VH with Q54G, S55Y
VL: B1 VL
notes: also called VH-S59Y; Kabat 54; copies: 2 + 2
B3: H1.60_L1 (antibody, human IgG1, kappa, V domains shown)
VH: B1 VH with Q54L
VL: B1 VL
notes: also called VH-G56L; Kabat 53; copies: 2 + 2
B4: H1.63_L1 (antibody, human IgG1, kappa, V domains shown)
VH: B1 VH with Q54G, S55A
VL: B1 VL
notes: also called VH-S59A; Kabat 54; copies: 2 + 2
B5: H1.62_L1 (antibody, human IgG1, kappa, V domains shown)
VH: B1 VH with Q54G, S55T
VL: B1 VL
notes: also called VH-S59T; Kabat 54; copies: 2 + 2
B6: H1.59_L1 (antibody, human IgG1, kappa, V domains shown)
VH: B1 VH with Q54K
VL: B1 VL
notes: also called VH-G56K; Kabat 53; copies: 2 + 2
B7: H1.64_L1 (antibody, human IgG1, kappa, V domains shown)
VH: B1 VH with Q54G, S55Q
VL: B1 VL
notes: also called VH-S59Q; Kabat 54; copies: 2 + 2
B8: H1.61_L1 (antibody, human IgG1, kappa, V domains shown)
VH: B1 VH with Q54Y
VL: B1 VL
notes: also called VH-G56Y; Kabat 53; copies: 2 + 2
B9: H1.66_L1 (antibody, human IgG1, kappa, V domains shown)
VH: B1 VH with Q54G, S55V
VL: B1 VL
notes: also called VH-S59V; Kabat 54; copies: 2 + 2
B10: H1.70_L1 (antibody, human IgG1, kappa, V domains shown)
VH: B1 VH with Q54G, S55E
VL: B1 VL
notes: also called VH-S59E; Kabat 54; copies: 2 + 2
B11: H1.65_L1 (antibody, human IgG1, kappa, V domains shown)
VH: B1 VH with Q54G, S55G
VL: B1 VL
notes: also called VH-S59G; Kabat 54; copies: 2 + 2
B12: H1.67_L1 (antibody, human IgG1, kappa, V domains shown)
VH: B1 VH with Q54G, S55H
VL: B1 VL
notes: also called VH-S59H; Kabat 54; copies: 2 + 2
B13: H1.58_L1 (antibody, human IgG1, kappa, V domains shown)
VH: B1 VH with Q54H
VL: B1 VL
notes: also called VH-G56H; Kabat 53; copies: 2 + 2
B14: H1.71_L1 (antibody, human IgG1, kappa, V domains shown)
VH: B1 VH with Q54G, S56T
VL: B1 VL
notes: also called VH-S60T; Kabat 55; copies: 2 + 2
B15: H1.68_L1 (antibody, human IgG1, kappa, V domains shown)
VH: B1 VH with Q54G, S55K
VL: B1 VL
notes: also called VH-S59K; Kabat 54; copies: 2 + 2

These binders were tested against T1, human PD-1-His (human, UniProt Q15116 25-167, limits assumed) (assay: Octet).
T1 construct: Antigen of the Octet assays; not shown: His tag
T1 sequence (Q15116 25-167 limits assumed): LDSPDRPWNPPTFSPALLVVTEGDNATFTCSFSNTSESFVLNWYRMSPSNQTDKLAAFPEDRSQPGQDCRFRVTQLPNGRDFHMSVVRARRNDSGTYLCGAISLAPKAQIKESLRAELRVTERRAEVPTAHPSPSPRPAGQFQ

First: B1
Second: B2
The Kd of the first is 1.9-fold lower: 30.9 nM for the first, 59.6 nM for the second.

B3 and B4 are within 1.5-fold of each other in Kd: 35.9 nM for the first, 42.4 nM for the second.

Going from B5 to B6, the Kd falls from 59.9 nM to 37.6 nM (1.6-fold).

B7 and B8 are within 1.5-fold of each other in Kd: 59.1 nM for the first, 41.5 nM for the second.

Going from B9 to B10, the Kd falls from 112 nM to 48 nM (2.3-fold). The second binds more tightly here.

B11 and B12 are within 1.5-fold of each other in Kd: 61 nM for the first, 49.2 nM for the second.

B13 and B14 are within 1.5-fold of each other in Kd: 43.9 nM for the first, 45.8 nM for the second.

For B15, the Kd was 74 nM.

Going from B1 to B2, the koff rises from 0.00464 s⁻¹ to 0.00818 s⁻¹ (1.8-fold).

B3 and B4 are within 1.5-fold of each other in koff: 0.00458 s⁻¹ for the first, 0.00619 s⁻¹ for the second.

Compared with B5, B6 is 1.6-fold lower in koff: 0.00774 s⁻¹ for the first, 0.00494 s⁻¹ for the second.

B7 and B8 are within 1.5-fold of each other in koff: 0.00783 s⁻¹ for the first, 0.00574 s⁻¹ for the second.

Going from B9 to B10, the koff falls from 0.0129 s⁻¹ to 0.00674 s⁻¹ (1.9-fold).

B11 and B12 are within 1.5-fold of each other in koff: 0.00827 s⁻¹ for the first, 0.00692 s⁻¹ for the second.

B13 and B14 are within 1.5-fold of each other in koff: 0.00544 s⁻¹ for the first, 0.00505 s⁻¹ for the second.

With B15 the koff was 0.00808 s⁻¹.

B1 and B2 are within 1.5-fold of each other in kon: 150000 M⁻¹ s⁻¹ for the first, 137000 M⁻¹ s⁻¹ for the second.

B3 and B4 are within 1.5-fold of each other in kon: 128000 M⁻¹ s⁻¹ for the first, 146000 M⁻¹ s⁻¹ for the second.

B5 and B6 are within 1.5-fold of each other in kon: 129000 M⁻¹ s⁻¹ for the first, 131000 M⁻¹ s⁻¹ for the second.

B7 and B8 are within 1.5-fold of each other in kon: 132000 M⁻¹ s⁻¹ for the first, 138000 M⁻¹ s⁻¹ for the second.

B9 and B10 are within 1.5-fold of each other in kon: 115000 M⁻¹ s⁻¹ for the first, 140000 M⁻¹ s⁻¹ for the second.

B11 and B12 are within 1.5-fold of each other in kon: 136000 M⁻¹ s⁻¹ for the first, 141000 M⁻¹ s⁻¹ for the second.

B13 and B14 are within 1.5-fold of each other in kon: 124000 M⁻¹ s⁻¹ for the first, 110000 M⁻¹ s⁻¹ for the second.

For B15, the kon was 109000 M⁻¹ s⁻¹.
